Results taken from IntAct's records for PubMed 22908257.

Target: ABI2, O04719-1
Sequence (O04719 whole entry): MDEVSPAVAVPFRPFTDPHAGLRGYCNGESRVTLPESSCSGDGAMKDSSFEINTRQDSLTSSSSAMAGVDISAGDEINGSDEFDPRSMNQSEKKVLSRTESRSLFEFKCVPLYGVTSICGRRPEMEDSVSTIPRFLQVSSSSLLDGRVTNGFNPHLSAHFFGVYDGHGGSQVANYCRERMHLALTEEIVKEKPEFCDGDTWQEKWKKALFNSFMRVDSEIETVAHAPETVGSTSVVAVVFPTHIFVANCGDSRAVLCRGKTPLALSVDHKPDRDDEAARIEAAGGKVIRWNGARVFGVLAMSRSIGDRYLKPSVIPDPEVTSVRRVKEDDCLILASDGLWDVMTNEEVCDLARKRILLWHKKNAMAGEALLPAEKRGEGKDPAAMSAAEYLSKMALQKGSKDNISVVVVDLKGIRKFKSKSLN

Sequence of Rac-like GTP-binding protein ARAC10 (Arabidopsis thaliana (Mouse-ear cress)), O82481 D123A (O82481 whole entry D123A): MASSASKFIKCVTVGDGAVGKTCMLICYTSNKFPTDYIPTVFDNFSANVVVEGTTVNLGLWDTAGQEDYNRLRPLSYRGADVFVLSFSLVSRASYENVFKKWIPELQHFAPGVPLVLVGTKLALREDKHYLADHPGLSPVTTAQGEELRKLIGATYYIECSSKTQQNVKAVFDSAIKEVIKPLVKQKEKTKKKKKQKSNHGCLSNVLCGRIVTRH

effect of a mutation on the interaction: disrupting interaction strength
Substance: Rac-like GTP-binding protein ARAC10 (Arabidopsis thaliana (Mouse-ear cress)), O82481 D123A
